Results reported in article PMC8816746, “Genetic tools for the redirection of the central carbon flow towards the production of lactate in the human gut bacterium Phocaeicola (Bacteroides) vulgatus” (Applied Microbiology and Biotechnology, 2022).

Substrate: CC(=O)C(=O)O
Experiment: purified protein
Format: biochemical, Phocaeicola vulgatus
Conditions: 250 μM NADH, 100 mM K-phosphate pH 7, 37 °C

B1: D-LDH (BVU_2499) (Phocaeicola vulgatus ATCC 8482) (protein)
chain: AYKIAFYDTKPYDERSFTEANEKFGFDIRYYKGHLNMNNVVLTKGVDVVCIFVNDTADAEVIRAMADNGVKLLALRCAGYNNVDLAATAGKMKVVRVPAYSPYAVAEFTVALMLSLNRKIPRATMRTRDGNFSLHGLMGFDMHGKTAGIIGTGKIAKILIQILRGFGMNVLAYDLYPDYNFAREHQVVYCTLDELYHSSDIISLHCPLTEQTKYLINDYSISKMKDGVMIINTGRGQLIHTNALIEGLKTKKVGYAGLDVYEEEEPYFYEDKSDKIIDDDTLARLLSFNNVIVTSHQAFFTKEAMTNIAHTTLQNVKDFAESRSLVNEVAVGRV
notes: full-length ldh in pASK-IBA5, N-terminal Strep-tag kept (no cleavage told), E. coli DH5alpha, Strep-Tactin purified
In the case of B1, the Km is reported as 1400 ± 100 µM.
